The source of these data is US20030032072A1, “Method for the assessment of allergenicity” (Novozymes A/S, priority 1999, published 2003).

Series [1] deals with Human lung epithelial cells (BEAS-2B, ATCC # CRL-9609). The experiment in a line: Bioassay: extracellular cytokine expression of epithelial cells, assessed by ELISA. The series is classed as cell-based. The procedure:
Human lung epithelial cells (BEAS-2B, ATCC # CRL-9609) were inoculated in a culture flask (NUNC), precoated with 2% (vol/vol) Ultroser G in water, at 1500 to 3000 cells per cm^2, and were grown at 37° C. in LHC-9 medium containing 2% (vol/vol) Ultroser G and 5% CO2.
The cells were subcultured before reaching confluence. The medium was removed, and fresh 0.5% polyvinylpyrrolidone (PVP) in trypin (0.25% (wt/vol))-EDTA (0.03% (wt/vol)) solution was added until cells detached (usually after 5-10 minutes at room temperature). LHC-9 medium was added, and cells were collected by centrifugation (300× g for 15 minutes), and resuspended in LHC-9 medium containing 2% (vol/vol) Ultroser G. Finally, cells were dispensed into precoated flasks (NUNC) at a density of 1500 to 3000 cells per cm^2.
When enough cells were available to perform the planned number of assays, cells were trypinated, and were transferred to a 24-well culture plate (NUNC) (1×10^5 cells per well). Incubation was for 24 hours at 37° C. in LHC-9 medium containing 2% (vol/vol) Ultroser G and 5% CO2. […]
The extracellular expression of selected cytokines was assessed by ELISA (R&D Systems), as a function of incubation time and protein concentration. […] A calibration curve was included each time, to include quantification of the detected cytokine levels, as well as to assess assay reproducibility.
(ELISA stands for enzyme-linked immunosorbent assay.)

The subject of a further series is Brown Norway rats. The experiment in a line: Intratracheal immunization of Brown Norway rats, IgE ELISA. The series is classed as in vivo, rat. Particulars: rats immunized intratracheally, IgE detected by ELISA, Example 5. The procedure:
Twenty intratracheal immunizations were performed weekly with 100 microliters 0.9% (wt/vol) NaCl (control group), or 100 microliters of the protein dilution mentioned before. Each group contained 10 rats. Blood samples (2 ml) were collected from the eye one week after every second immunization. Serum was obtained by blood clothing, and centrifugation.
The IgE ELISA was performed by using the following: Buffers and Solutions:
Mouse anti-Rat IgE was diluted 200×in PBS (5 micrograms/ml). 100 microliters were added to each well. The plates were coated overnight at 4° C.
Unspecific adsorption was blocked by incubating each well for 1 hour at room temperature with 200 microliters blocking buffer. The plates were washed 3×with 300 microliters washing buffer.
Unknown rat sera and a known rat IgE solution were diluted in dilution buffer: Typically 10×, 20×and 40×for the unknown sera, and ½ dilutions for the standard IgE starting from 1 microgram/ml. 100 microliters were added to each well. […]
The reaction was stopped by adding 100 microliters H2SO4. The plates were read at 492 nm with 620 nm as reference.
Rats were immunized intratracheally with unmodified and modified protease, and the protease specific IgE levels were detected by ELISA. The IgE levels detected throughout the study were integrated, and compared relative to the levels observed in rats immunized with unmodified enzyme.

As for `O=S(=O)(F)Cc1ccccc1` [PMSF, reference compound], the “effect on cytokine production” value in series [1] (PMSF (10 mM) and its hydrolysis products, diluted about 1000× before being applied on the cells) is on record as “no detectable effect”.

B1: lipase: triacylglycerol acylhydrolase (lipase) E.C. 3.1.1.3 from Humicola lanuginosa (protein, UniProt O59952 23-291, looked up)
Lipase: EVSQDLFNQFNLFAQYSAAAYCGKNNDAPAGTNITCTGNACPEVEKADATFLYSFEDSGVGDVTGFLALDNTNKLIVLSFRGSRSIENWIGNLNFDLKEINDICSGCRGHDGFTSSWRSVADTLRQKVEDAVREHPDYRVVFTGHSLGGALATVAGADLRGNGYDIDVFSYGAPRVGNRAFAEFLTVQTGGTLYRITHTNDIVPRLPPREFGYSHSSPEYWIKSGTLVPVTRNDIVKIEGIDATGGNNQPNIPDIPAHLWYFGLIGTCL
Regarding B1, the “level of all cytokines (normalized cytokine levels, FIG. 5)” value in series [1] (epithelial cell assay, Example 5) is given as “high level”. In addition, in the series on Brown Norway rats, the “IgE level in rats” value is listed as “significantly lower IgE level”.
